Data published in patent US20190248877A1 (Hoffmann-La Roche, published 2019).

Key:
Assay in all cases: SPR Biacore T200, biotinylated TnC on SA chip, Fab as analyte, 1:1 fit
[1] = molecular target: T1, cynoTNC (recombinant cynomolgus TnC antigen) (cynomolgus, biotin on the C-terminal avi-tag where used biotinylated (Example 5))
T1 construct: GST may have been cleaved off by thrombin; The text says this construct lacks the C domain
T1 chain: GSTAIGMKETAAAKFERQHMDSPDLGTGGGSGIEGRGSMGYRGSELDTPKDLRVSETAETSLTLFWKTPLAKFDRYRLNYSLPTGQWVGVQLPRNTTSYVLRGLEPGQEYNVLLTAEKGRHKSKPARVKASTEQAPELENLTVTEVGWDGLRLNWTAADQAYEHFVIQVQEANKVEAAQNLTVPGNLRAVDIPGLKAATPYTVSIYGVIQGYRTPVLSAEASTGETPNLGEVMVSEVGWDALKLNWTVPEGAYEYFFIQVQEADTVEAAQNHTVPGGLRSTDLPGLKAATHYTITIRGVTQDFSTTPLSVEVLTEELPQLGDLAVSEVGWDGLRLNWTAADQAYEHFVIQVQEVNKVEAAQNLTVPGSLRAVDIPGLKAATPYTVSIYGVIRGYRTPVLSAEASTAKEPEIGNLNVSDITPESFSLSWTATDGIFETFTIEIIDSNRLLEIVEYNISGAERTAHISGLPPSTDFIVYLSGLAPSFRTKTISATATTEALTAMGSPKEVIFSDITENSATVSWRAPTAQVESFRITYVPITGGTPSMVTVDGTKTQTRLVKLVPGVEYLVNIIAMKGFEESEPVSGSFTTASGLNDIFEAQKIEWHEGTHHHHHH
Description: (§1) Binding of the anti-TnC IgGs 18D4, 11C7 and the Fab fragment of anti-TnC 18D4 to human, murine and cynomolgus TnC (antigens according to Table 4) was assessed by surface plasmon resonance (SPR). All SPR experiments were performed on a Biacore T200 at 25° C. with HBS-EP as running buffer (0.01 M HEPES pH 7.4, 0.15 M NaCl, 3 mM EDTA, 0.005% Surfactant P20, Biacore, Freiburg/Germany).
(§2) A 20 μg/ml stock solution of biotinylated human, murine or cynomolgus TnC was injected on a SA chip, with the aim to immobilize up to 100 RU using the immobilization wizard function.
(§3) An additional dissociation step of 1800s was performed for the highest concentration of IgG. After each step the surface was regenerated following two sequential injections of 10 mM glycine pH2.1 for 60 s. Bulk refractive index differences were corrected for by subtracting the response obtained in a reference flow cell without TNC. Affinity and avidity were calculated using the Langmuir 1:1 kinetic model. However, as the KD for the 1:1 fitting of bivalent interactions is an apparent value only, it should only be used for comparisons.

[2] = molecular target: T2, muTNC (recombinant murine TnC antigen) (mouse, biotin on the C-terminal avi-tag where used biotinylated (Example 5))
T2 construct: GST may have been cleaved off by thrombin; The text says this construct lacks the C domain; also called mouse TnC
T2 chain: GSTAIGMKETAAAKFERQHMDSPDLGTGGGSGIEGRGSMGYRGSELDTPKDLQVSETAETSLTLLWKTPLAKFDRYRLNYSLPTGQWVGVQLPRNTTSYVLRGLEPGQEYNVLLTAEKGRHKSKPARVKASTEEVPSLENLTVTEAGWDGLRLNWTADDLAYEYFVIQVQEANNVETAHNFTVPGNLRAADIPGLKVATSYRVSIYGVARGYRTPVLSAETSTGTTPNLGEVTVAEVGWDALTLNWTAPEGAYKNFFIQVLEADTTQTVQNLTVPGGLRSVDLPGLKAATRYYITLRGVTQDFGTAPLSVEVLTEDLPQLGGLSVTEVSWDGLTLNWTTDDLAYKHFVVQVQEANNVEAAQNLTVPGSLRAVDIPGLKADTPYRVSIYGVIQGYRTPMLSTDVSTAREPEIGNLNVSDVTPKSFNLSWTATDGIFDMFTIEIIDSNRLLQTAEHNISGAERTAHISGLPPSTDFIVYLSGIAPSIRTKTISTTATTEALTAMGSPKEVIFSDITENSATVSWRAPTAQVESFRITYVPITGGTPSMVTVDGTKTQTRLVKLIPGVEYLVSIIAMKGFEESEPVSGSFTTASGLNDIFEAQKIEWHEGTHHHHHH
Description: as §1, §2, §3

[3] = molecular target: T3, huTNC (recombinant human TnC antigen) (human, UniProt P24821 984-1798, biotin on the C-terminal avi-tag where used biotinylated (Examples 5 and 10))
T3 sequence: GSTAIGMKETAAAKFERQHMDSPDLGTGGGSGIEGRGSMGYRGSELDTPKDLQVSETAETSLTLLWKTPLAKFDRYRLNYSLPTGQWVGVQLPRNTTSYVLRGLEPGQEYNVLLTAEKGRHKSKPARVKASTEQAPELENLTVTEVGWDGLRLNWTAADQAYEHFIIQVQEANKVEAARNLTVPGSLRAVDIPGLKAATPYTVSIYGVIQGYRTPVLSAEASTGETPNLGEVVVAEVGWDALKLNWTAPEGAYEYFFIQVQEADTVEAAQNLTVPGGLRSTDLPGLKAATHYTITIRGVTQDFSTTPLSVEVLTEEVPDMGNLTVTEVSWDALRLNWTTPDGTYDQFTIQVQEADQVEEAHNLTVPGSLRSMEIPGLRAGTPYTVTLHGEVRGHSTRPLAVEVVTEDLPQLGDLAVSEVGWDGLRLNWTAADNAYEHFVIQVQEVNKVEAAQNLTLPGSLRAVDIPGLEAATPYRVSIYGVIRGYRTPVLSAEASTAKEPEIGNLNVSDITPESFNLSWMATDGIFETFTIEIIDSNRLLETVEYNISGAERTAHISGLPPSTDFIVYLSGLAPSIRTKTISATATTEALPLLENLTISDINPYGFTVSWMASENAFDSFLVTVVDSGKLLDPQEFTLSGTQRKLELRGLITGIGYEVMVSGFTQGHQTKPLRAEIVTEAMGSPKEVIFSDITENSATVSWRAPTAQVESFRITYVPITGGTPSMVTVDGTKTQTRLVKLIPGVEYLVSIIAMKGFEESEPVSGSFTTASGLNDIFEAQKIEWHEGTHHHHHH
Description: as §1, §2, §3

B1: anti-TnC clone 18D4 Fab fragment (Fab, V domains shown)
VH: QVQLVQSGAEVKKPGSSVKVSCKASGGTFSSYAISWVRQAPGQGLEWMGGIIPIFGTANYAQKFQGRVTITADKSTSTAYMELSSLRSEDTAVYYCAKGNFYGGLDYWGQGTTVTVSS
VL: DIQMTQSPSTLSASVGDRVTITCRASQSISSWLAWYQQKPGKAPKLLIYDASSLESGVPSRFSGSGSGTEFTLTISSLQPDDFATYYCQQNKKFPSGTFGQGTKVEIK
[1]
  Kd: 6.69 nM
[2]
  Kd: 6.5 nM
[3]
  Kd: 1.44 nM
